From PMC7276988, “Cryo-EM Structure of the Fork Protection Complex Bound to CMG at a Replication Fork” (Molecular Cell, 2020)
Blank lines part the entries; values can stand above or below the molecule they belong to.

Tests used:
[1] = target: replisome assembled in vitro on origin DNA (CMG-containing) (S. cerevisiae) (UniProt P29469)
[2] = target: T1, Cdc45 (S. cerevisiae, UniProt Q08032 1-650); assay: cryo-EM structure; reconstituted from purified CMG, fork DNA, Csm3/Tof1, Ctf4, Mrc1 with AMP-PNP; glycerol gradient fixation (glutaraldehyde and BS3); details: both partners purified
T1 construct: Cdc45, S. cerevisiae, subunit of CMG; source: S. cerevisiae, overexpressed, purified as part of CMG; in XL-MS part of the co-expressed, co-purified complex (yJY74)
T1 sequence: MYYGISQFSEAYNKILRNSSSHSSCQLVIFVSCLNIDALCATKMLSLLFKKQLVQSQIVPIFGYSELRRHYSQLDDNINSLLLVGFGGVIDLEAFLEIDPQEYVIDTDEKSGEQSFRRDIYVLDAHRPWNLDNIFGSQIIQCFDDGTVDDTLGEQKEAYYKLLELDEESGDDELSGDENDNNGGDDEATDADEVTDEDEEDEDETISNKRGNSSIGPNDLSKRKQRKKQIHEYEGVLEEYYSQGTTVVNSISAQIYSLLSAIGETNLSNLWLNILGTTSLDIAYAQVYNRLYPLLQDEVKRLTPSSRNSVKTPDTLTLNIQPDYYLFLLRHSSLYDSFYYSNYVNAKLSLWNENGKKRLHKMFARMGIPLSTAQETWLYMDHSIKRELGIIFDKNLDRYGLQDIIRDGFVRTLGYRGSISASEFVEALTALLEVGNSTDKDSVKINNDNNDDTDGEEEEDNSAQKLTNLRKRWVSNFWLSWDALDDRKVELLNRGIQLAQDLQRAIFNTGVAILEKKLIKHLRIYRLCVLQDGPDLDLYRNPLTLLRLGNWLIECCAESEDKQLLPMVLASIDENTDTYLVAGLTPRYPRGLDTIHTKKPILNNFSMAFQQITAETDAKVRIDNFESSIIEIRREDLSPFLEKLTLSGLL

[3] = target: T2, Cdc45-MCM-GINS (CMG) helicase (S. cerevisiae, UniProt P29469 1-868; P24279 1-971; P30665 1-933; P29496 1-775; P53091 1-1017; P38132 …); assay: co-sedimentation; 10-30% glycerol gradient without cross-linker; 0.5 μM CMG with 1.5 molar excess of fork DNA, Csm3/Tof1 (or mutant), Ctf4 and Mrc1; 500 μM AMP-PNP, 3 mM Mg(OAc)2, 150 mM NaOAc, pH 7.5; 200,000g, 4°C, 2 h; silver-stained SDS-PAGE of fractions; details: both partners purified
T2 construct: Mcm2, S. cerevisiae, subunit of MCM in CMG; Mcm3, S. cerevisiae, subunit of MCM in CMG; Mcm4, S. cerevisiae, subunit of MCM in CMG; Mcm5, S. cerevisiae, subunit of MCM in CMG; Mcm6, S. cerevisiae, subunit of MCM in CMG; Mcm7, S. cerevisiae, subunit of MCM in CMG; Cdc45, S. cerevisiae, subunit of CMG; Psf1, S. cerevisiae, subunit of GINS in CMG; Psf2, S. cerevisiae, subunit of GINS in CMG; Psf3, …

replisome assembled in vitro on origin DNA (CMG-containing) (S. cerevisiae), sequence (P29469 whole entry, looked up): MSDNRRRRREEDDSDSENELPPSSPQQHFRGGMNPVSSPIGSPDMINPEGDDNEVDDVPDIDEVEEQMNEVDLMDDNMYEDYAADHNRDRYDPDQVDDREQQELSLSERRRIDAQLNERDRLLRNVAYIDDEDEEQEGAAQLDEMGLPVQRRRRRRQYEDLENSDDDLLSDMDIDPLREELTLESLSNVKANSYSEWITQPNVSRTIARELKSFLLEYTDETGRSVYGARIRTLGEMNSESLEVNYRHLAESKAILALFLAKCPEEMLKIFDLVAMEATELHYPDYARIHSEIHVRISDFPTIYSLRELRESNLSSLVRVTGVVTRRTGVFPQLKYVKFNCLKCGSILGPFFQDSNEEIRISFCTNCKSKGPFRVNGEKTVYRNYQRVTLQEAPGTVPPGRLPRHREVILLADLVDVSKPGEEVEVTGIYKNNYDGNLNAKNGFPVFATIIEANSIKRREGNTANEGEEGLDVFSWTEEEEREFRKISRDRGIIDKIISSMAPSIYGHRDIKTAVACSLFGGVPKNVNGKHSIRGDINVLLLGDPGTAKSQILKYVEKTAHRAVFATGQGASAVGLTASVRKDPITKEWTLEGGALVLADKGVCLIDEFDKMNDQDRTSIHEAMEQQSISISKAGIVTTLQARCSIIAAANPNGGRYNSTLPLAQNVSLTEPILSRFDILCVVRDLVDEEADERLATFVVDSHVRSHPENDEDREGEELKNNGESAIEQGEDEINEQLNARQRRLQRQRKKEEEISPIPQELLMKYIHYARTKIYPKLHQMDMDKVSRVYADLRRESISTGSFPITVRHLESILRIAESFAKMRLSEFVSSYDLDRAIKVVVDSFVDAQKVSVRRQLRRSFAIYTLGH

binding result [2]: binds
B1: Psf2 (natural protein, S. cerevisiae)
chain: MSLPAHLQQTFSPEEIQFIVENEPIKIFPRITTRQKIRGDDRGTGNHTRWQLITTDDKALNNMVAMRSTEVVLWIALLLKQQSKCSIVAPQWLTTKELDRKIQYEKTHPDRFSELPWNWLVLARILFNKAKDDFHDPIHELRGKIQDLREIRQIKVLKGLKYLNESHLQLDNLSLLEINELRPFITEIMDKLREIHTASLTAGTENDEEEFNI
notes: also called GINS subunit Psf2; source: S. cerevisiae, overexpressed, purified as part of CMG

binding result [3]: binds
B2: Csm3^(K47A, R48A, R49A, Q51A, K53A)/Tof1^(K400A, R401A, K404A) (complex, S. cerevisiae)
chain 1: MDQDFDSLLLGFNDSDSVQKDPTVPNGLDGSVVDPTIADPTAITARAAAPAVALTAEKLLSDKGLPYVLKNAHKRIRISSKKNSYDNLSNIIQFYQLWAHELFPKAKFKDFMKICQTVGKTDPVLREYRVSLFRDEMGMSFDVGTRETGQDLERQSPMVEEHVTSAEERPIVADSFAQDKRNVNNVDYDNDEDDDIYHLSYRNRRGRVLDERGNNETVLNNVVPPKEDLDALLKTFRVQGPVGLEENEKKLLLGWLDAHRKMEKGSMTEEDVQLIQSLEEWEMNDIEGQHTHYDLLPGGDEFGVDQDELDAMKEMGF
chain 2: MSADLQQGTTNAADFSLTVLRARIALLATAIGGPDYTSQIDPPPYKLGDDCLACLKDLKRWFKLVDDQQKRWDVAMAVAEYRILTDDLLPILIDWENKCSLAAKLAKNNPDHEEFRNKAYYDKIALNCLQLLVLMTWPLIVTEQSSSNQITLYGELKKHQLVYKKTILSMESGKVLRAAIRLALDVIKIDRLSRTPRDNMVLKLVLNFFRNVIAIEPGEFTINTKKSMPKKGITSIDTLPPNVSMDDISLNTVISSFHKNKVFGFLLTLTSSLSKEFDQDFINIPLLEIMFYFTKDVNQELLFPRQFETGTHSKVVNKNESSSANNIVTSAGFELSKLLQKEHQMRKNVIKHTSARHSRFGGLLSIQTPDKTRLTVSGSQALVDEKIALQKLDDSKKWNAAIIAKHQSVAAEGLPNSLLNSQTGKAIFFTESNGKHFKEFINNFIDSGFNILLHSVTNYFTTEQDRMVTLEQVEYLLFFAWFVKYQLLRSKIDNSADIKQVSEALKEVTFILVSSLLRSAYDLKNWTVTHAGMIAFNELLNLVSRTKAAQEEDSTDIEFIVSRLFSDERIQLLSNLPKIGSKYSLQFMKSCIELTHSVLKVLEQYSDDKTLVIEGKSRRQKKFNISEGDITKLIEEENVDRDEALDILTSSLRSIEVNFQKVQANYMTEPVIETYINFLERFRELEDDSIKKVFSFFHRVFVQAKEQALLFRFDLIILLREMLSPDGLDRMSRSRKYVSQFSDYFLARLKKRLKKSPAWFVGLLFPPLHNSEVGFYQRYGEYNVLNNESMYAAPASQFKPIPDEEALPPSILLDMKYGVLVSTLLDDGKTELLDQLLKHITHTLDIFKSWLTVNVNAGKETVNPPNEYFTLTGVLNNDPIFKDKDYRALLLLIGYSIPRKINEPCFLPGTVEVSDLTVSCELVKKYLSTPFETPNGLPSSSYLLRVRSEKDSFSHNEQDGWEGDDDYDYNDPYIVPDDQILSKSDAAYFKDLDNNASDKLKGTKFSKGIARSKKKDKRKRRKGEAKTNLPMFGDQDDERPQTVRERHGVFSKEFISDSEDDEDLMNPIFFENETYMRWLLDKNNGQLTEDRYIQFAKFAAERMNNGGVVTGDYTSLFGGSIPSIESIRATESSSFAPDKSLISLASHVASEMSIFDVNNNNNNQLSDDDVNSESRNSLGSSQPSNSQNMFQSEVYSRKESTKRSLEASAADESDEDEEAIRLFGKKSRVVLSQGDSDD
notes: also called Csm3-5A/Tof1-3A; source: S. cerevisiae, overexpressed, purified as a heterodimer

The remaining lines, values behind:

Molecule: Csm3/Tof1 heterodimer (from UniProt Q04659 1-317; P53840 1-1238) (complex)
concentration of Csm3/Tof1 that saturates origin-dependent replication (Figure S10H) [1]: 10 nM

B3: Mrc1 (natural protein, S. cerevisiae, UniProt P25588 1-1096, looked up)
chain: MDDALHALSSLTAKKRTTTYKKVAVPILDENDNTNGNGPNDIDNPPELTGNGFLFANATLNRVKNRLEGKKAPEQNHNNGKDRSENSLPTQLISNLYDGGEELEKSEVKDNSYSEKNVSSSFTQTQRIPVSIQQDKVFNVPIHSVNDGKPTQLIKEDGLVNETSQALKTPLTTGRPGATQRIDSSGATSQTQPIKSIEPQSQIITTSSNHSNALSPKIPIIPTELIGTSPLFQSIQNRGPDTQMDVPPQTAHDEDKTQAIGIPQATHQEQKTQIDTVAQTLQDEVPHTLKIREIQSELASEDSKREKARNVEYKKPQKPIPTKKFFSKESFLADFDDSSSNEDDDIKLENAHPKPVQNDDELHENKSVELNLTDETRINEKRVPLLSSYANNLKREIDSSKCITLDLDSDSDEYGDDDMDSIKLSKDESVLPISQLSKATILNLKARLSKQNQKLSQRPNKSKDPKVDHNVLLNTLRKASRKQILDHQKEVIETKGLKLEDMAKEKEIVENLLEQEILRNKRIRQKEKRREKLEENDFQLNAHDSGSDSGSESSGFALSGNEIADYESSGSENDNRRESDSEKEDDEIILKQKKSHHVKHIINESDSDTEVEAKPKEKADESLPKRIAINLGHYGDNIGEDTDKFQETNVLDTQNIEEVMAERNTIENEVKDDVYVNEEADEAIRRQLIDKEKLQLKQKEKEHEAKIKELKKRGVTNFFEMEAEESEDEWHGIGGADGEGSDDYDSDLEKMIDDYSKNNFNPHEIREMLAAENKEMDIKMINKILYDIKNGGFRNKRAKNSLELELSDDDEDDVLQQYRLKRRELMRKRRLEIGDDAKLVKNPKSSAFFESMVEDIIEYKNPFGAEEEYNLDITSTATDLDTQDNSINVGDNTGNNEQKPVDQKNKKVIISEDFVQKSLSFLKSNNYEDFETDKELSRIQHGNDEAIEDLYTLKQNSSIKSFTNSQTDSTTSKTVNTIIDLEKRPEDEDEVENGDTSLVGVFKHPSIIKSFASRTDINDKFKEGNKTVKILKSYKTVGSSKASITYMGKTRKLIAPKRKTEGSHRYHHDHHNKKMKMKTKTKSNKLFESGQDSFDN
notes: Mrc1, S. cerevisiae; printed as a 125 kDa protein; The FLAG purification is told for the separately purified protein; source: S. cerevisiae, overexpressed at 20°C, purified (anti-FLAG M2, Superose 6)
stoichiometry N [3]: ~1 Mrc1 per complex
